Results on 8 molecules are retold here after patent US12365732 (23ANDME, dated 2025).

The target in experiment [1] is T1, cynomolgus monkey CD96 on cynomolgus monkey PBMCs (cynomolgus monkey, UniProt A0A2K5TWV6 22-569).
T1 construct: whole, on cells
T1 sequence: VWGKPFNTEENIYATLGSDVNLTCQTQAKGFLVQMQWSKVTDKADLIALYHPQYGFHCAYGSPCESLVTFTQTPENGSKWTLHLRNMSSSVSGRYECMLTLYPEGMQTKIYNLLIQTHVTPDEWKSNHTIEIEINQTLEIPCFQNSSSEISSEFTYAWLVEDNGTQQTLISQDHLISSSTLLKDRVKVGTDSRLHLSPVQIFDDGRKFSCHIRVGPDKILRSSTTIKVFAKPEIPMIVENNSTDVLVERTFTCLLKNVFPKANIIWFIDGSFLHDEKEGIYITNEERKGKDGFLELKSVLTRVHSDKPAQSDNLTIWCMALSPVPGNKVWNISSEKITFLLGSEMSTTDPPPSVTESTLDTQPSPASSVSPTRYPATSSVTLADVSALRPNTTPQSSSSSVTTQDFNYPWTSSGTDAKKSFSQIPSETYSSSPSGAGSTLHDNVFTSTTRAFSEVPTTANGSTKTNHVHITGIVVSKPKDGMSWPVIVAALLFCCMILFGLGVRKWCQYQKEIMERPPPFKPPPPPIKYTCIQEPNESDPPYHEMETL
Description: FACS, Ab 0.00512 nM. How it is done: (§1) The ability of the anti-CD96 antibodies to bind primary immune cells from human and cynomolgus monkey with lower level of receptor expression was measured. Human PBMCs (StemCell Technologies, catalog #70025) and cynomolgus monkey PBMCs (Primate Biologicals, catalog #CM-MC) were incubated with human TruStain FcX (Biolegend, catalog #422302) for 10 minutes at 4° C., followed by incubation with an anti-CD96 antibody for 20 minutes at 4° C. Cells were washed and the anti-CD96 antibody binding was detected by incubation with anti-mouse IgG-PE (Thermo Fisher, catalog #M30204) or anti-human IgG (Fab) 2-PE (Thermo Fisher, catalog #H10104) for 20 minutes at 4° C. Cells were washed, and immune subtypes were labeled with anti-CD3 (BD, catalog #557705), anti-CD4 (Biolegend, catalog #317424) and anti-CD8 (BD, catalog #557760) for 20 minutes at 4° C. Cell binding was analyzed by flow cytometry with a CytoFLEX (Beckman Coulter). Binding curves were calculated as a percentage of cells positive for bound antibody in the cell type of interest.

In experiment [2] the target is T1, cynomolgus monkey CD96 on cynomolgus …. Description: FACS, % positive curve. How it is done:
as §1
On the technique in general: Flow cytometry measures light scatter and fluorescence of single cells or particles in a stream.

The target in experiment [3] is T2, hu-CD96 isoform 2 on CHO cells (human, UniProt P40200 22-585).
T2 construct: also called CHO-CD96 (isoform 2); CD96-CHOs
T2 sequence: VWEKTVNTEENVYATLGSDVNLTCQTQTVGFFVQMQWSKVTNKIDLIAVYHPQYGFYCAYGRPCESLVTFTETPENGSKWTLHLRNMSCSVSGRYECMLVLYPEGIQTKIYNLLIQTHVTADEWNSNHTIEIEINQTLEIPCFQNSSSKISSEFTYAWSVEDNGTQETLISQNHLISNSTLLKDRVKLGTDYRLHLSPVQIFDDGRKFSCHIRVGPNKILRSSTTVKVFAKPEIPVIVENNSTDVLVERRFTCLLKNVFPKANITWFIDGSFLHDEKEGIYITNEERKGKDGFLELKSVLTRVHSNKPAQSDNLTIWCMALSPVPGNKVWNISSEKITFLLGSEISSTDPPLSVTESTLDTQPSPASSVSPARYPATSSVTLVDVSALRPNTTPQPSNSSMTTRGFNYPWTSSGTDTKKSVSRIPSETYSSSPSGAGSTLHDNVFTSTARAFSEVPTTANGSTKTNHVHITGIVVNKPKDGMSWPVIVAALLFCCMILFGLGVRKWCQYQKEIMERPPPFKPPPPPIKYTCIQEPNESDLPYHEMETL
Description: FACS, Ab 0.016 nM. The protocol: (§2) Isoform 1 of hu-CD96 (Origene, catalog #RC213845) was transiently expressed in HEK293T cells following standard lipofectamine or Fugene transfection protocol. […] Cells were washed, and binding was detected by incubation with anti-mouse IgG-FITC (Biolegend, catalog #406001) for 20 minutes at 4° C. Cell binding was analyzed by flow cytometry with a CytoFLEX (Beckman Coulter). Binding curves were calculated as a percentage of cells positive for bound antibody.
(§3) Isoform 2 of hu-CD96 (DNA construct: Origene, catalog #RC221005) was expressed on a single-cell-clone-derived CHO stable cell line. Binding of the anti-CD96 antibodies to the CHO cells were determined as described above with isoform 1 of hu-CD96.

Experiment [4] concerns the target T2, hu-CD96 isoform 2 on CHO cells. The experiment is described as follows: FACS, Ab 0.08 nM. How it is done: as §2, §3
The target of experiment [5] is T3, hu-CD96 isoform 1 on HEK293T cells (human, UniProt P40200 22-585).
T3 construct: Origene RC213845, transient expression; also called HEK293T-CD96 (iso1)
T3 sequence: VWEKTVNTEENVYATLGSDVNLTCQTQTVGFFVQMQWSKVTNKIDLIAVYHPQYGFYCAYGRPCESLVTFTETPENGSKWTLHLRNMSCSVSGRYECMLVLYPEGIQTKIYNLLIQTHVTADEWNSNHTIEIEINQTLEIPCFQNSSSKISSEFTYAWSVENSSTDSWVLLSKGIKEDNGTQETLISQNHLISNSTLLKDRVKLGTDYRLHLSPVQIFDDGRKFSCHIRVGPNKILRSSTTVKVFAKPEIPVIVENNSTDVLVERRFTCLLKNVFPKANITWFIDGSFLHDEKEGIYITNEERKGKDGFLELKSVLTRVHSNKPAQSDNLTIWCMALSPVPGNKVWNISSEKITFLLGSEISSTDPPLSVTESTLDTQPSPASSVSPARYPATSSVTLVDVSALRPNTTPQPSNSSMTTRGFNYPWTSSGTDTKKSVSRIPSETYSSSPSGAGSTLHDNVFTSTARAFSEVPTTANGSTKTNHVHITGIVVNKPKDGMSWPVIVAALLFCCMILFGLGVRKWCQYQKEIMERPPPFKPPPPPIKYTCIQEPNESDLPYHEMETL
Description: FACS, Ab 0.016 nM. How it is done: as §2

The target in experiment [6] is T3, hu-CD96 isoform 1 on HEK293T cells. The experiment is described as follows: FACS, Ab 0.4 nM. The protocol: as §2

Positions count from the first letter of the chain named. Names and notes keep the numbering of the source.

B1: h10G1 IgG (humanized 10G1) (antibody, V domains shown)
VH: EIQLVQSGSELKKPGASVKVSCKASGYPFTTYGMSWVRQAPGQGLEWMGWINTDSGVPTYADDFKGRFVFSLDTSVSTAYLQISSLKAEDTAVYFCARNIYYGWGNFDYWGQGTLVTVSS
VL: EIVMTQSPDFQSVTPKEKVTITCRASQDIYRNLHWYQQKPDQTPKLLIKHASDSISGIPSRFSGSGSGTDFTLTINSLEAEDAAAYYCLQGYSMPYTFGGGTKVEIKG
notes: human IgG1 N297G
As for B1, the “% positive” value in experiment [1] was found to be 7.4%. The same molecule gave an EC50 in experiment [2] of 120 pM.

B2: 10G1 (clone 10G1.3G8), purified hybridoma antibody (antibody, V domains shown)
VH: QIQLVQSGPELKKPGETVKISCKASGYPFTTYGMSWVKQAPGKGLKWMGWINTDSGVPTYADDFKGRFAFSLETSANTAYLQINSLKNEDAATYFCARNIYYGWGNFDYWGQGTILTVSS
VL: DILMTQSPTTLSVTPGETVSLSCRASQDIYRNLHWYQQKSQGTPRLLIKHASDSISGIPSRFTGSGSGTDFTLSINSVKPEDEGIYYCLQGYSMPYTFGGGTKLEIK
notes: murine hybridoma IgG
B2: the “% positive” value in experiment [3] was 0.4%; in experiment [4], 9.4%; in experiment [5], 4.4%; in experiment [6] it was 34.6%.

B3: mAb1.v7 IgG (humanized 12F8) (antibody, V domains shown)
VH: EVQLVQSGAEVKKPGASVKVSCKASGFTFTNNWMHWVRQAPGQGLEWIGMIHPNSGITNINEKFKNRVTMTTDTSTSTAYMELRSLRSEDTAVYYCRSDGTYEGYFDYWGQGTLVTVSS
VL: DIQLTQSPSSLSASVGDRVTITCKASQNVGTAIVWYQQKPGKAPKVLIYSASTRYTGVPSRFSGSGSGTDFTLTISSLQPEDFATYYCQQYSSSPLTFGQGTKVEIKG
notes: human IgG1 N297G
Turning to B3, the “% positive” value amounted to 0.4% in experiment [3], 1.4% in experiment [4], 0.5% in experiment [5] and 12.2% in experiment [6].

B4: mAb1.v7.NGS11 IgG (antibody, V domains shown)
VH: B3 VH with W33F, M50F, P53A, T101V
VL: B3 VL
notes: human IgG1 N297G
Take B4: the “% positive” value in experiment [1] is 10.4%. The molecule further showed an EC50 in experiment [2] of 25 pM.

B5: mAb1.v7.NGS9 IgG (antibody, V domains shown)
VH: B3 VH with W33F, P53A, T101V
VL: B3 VL
notes: human IgG1 N297G
Regarding B5, the “% positive” value in experiment [1] came to 7.1%. For the same molecule, the concentration for a half-maximal effect (EC50) in experiment [2] stood at 73 pM.

B6: mAb1.v7.NGS10 IgG (antibody, V domains shown)
VH: B3 VH with W33F, M50F, P53A, T101I
VL: B3 VL
notes: human IgG1 N297G
On to B6, for which, in experiment [1], the “% positive” value was found to be 9.5%. For the same molecule, in experiment [2], the response was half-maximal at 24 pM (EC50).

B7: 9H4, purified hybridoma antibody (antibody, V domains shown)
VH: EVQLLETGGGLVKSGGSLKLSCAASGFTFSDYYMYWVRQTPEKRLEWVAAISDDGTYTYYPDSVKGRFTISRDNANNYLYLQMSSLKSEDTAIYYCAKAGSYDYFDVWGAGTTVTVSS
VL: DIVLTQSPASLAVSLGQRAIISCKASQSVTFADTGLMHWYQQKPGQQPKLLIYRASNLEVGVPTRFSGSGSGTDFTLNIHPVEEEDVATYYCQQSREYPWTFGGGTKLEIK
notes: murine hybridoma IgG
Take B7: the “% positive” value turned out to be 0.3% in experiment [3], 3.1% in experiment [4], 0.5% in experiment [5] and 13.9% in experiment [6].

B8: 7E5, purified hybridoma antibody (antibody, V domains shown)
VH: QVQLKESGPGLVAPSQSLSIICTVSGFSLTNYGIHWIRQPPGKGLEWLGIIWAGGSTNYNSALMSRLTISKDNSKSQVFLKMNSLQTNDTAIYYCARVSMMGFAYWGQGTLVTVSA
VL: QAVVTQESALTTSPGETVTLTCRSSTGAVTTSNYANWVQEKPDHLFTGLIGGTNNRAPGVPARFSGSLIGDKAALTITGAQTEDEAIYFCSLWYGSHWVFGGGTKLTVL
notes: murine hybridoma IgG
B8: the “% positive” value turned out to be 3.6% in experiment [3], 24.6% in experiment [4], 1% in experiment [5] and 20.4% in experiment [6].

For orientation: EC50 means the midpoint of the concentration-response curve.
